# Laboratory results published in paper PMC5389741 (Molecular cell, 2017).
# Residue numbers refer to the chain shown, from its start. Names and notes keep the numbering of the source.
# T1: His-PGK1 (wild type, not acetylated) (human, UniProt P00558 1-417)
# T1 sequence: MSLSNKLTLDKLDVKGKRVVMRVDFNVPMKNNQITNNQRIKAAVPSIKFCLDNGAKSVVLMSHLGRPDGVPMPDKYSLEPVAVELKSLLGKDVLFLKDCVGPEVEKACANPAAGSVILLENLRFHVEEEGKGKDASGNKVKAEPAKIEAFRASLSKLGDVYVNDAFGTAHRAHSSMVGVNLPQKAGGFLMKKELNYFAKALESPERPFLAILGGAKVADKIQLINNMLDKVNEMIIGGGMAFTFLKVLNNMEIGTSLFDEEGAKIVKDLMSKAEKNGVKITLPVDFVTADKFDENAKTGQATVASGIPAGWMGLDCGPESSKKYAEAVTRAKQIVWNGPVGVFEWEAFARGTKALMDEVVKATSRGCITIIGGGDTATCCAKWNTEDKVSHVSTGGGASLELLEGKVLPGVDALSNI
# B1: GST-ARD1 (wild type) (enzyme, human, UniProt P41227 1-235, looked up)
# chain: MNIRNARPEDLMNMQHCNLLCLPENYQMKYYFYHGLSWPQLSYIAEDENGKIVGYVLAKMEEDPDDVPHGHITSLAVKRSHRRLGLAQKLMDQASRAMIENFNAKYVSLHVRKSNRAALHLYSNTLNFQISEVEPKYYADGEDAYAMKRDLTQMADELRRHLELKEKGRHVVLGAIENKVESKGNSPPSSGEACREEKGLAAEDSGGDSKDLSEVSETTESTDVKDSSEASDSAS
# B2: GST-ARD1 S228A (enzyme, human, UniProt P41227 1-235, looked up)
# chain: B1 chain with S228A
# B3: His-PGK1 acetylated by Flag-ARD1 and Ac-CoA in vitro (enzyme, human)
# chain: T1 sequence
# modifications: acetyl-lysine at K388 (by ARD1 in vitro)
# What was measured:
# [1] = target: T1, His-PGK1 (wild type, not acetylated); experiment: pull-down
# GST-Beclin1 = GST-Beclin1 (human, UniProt Q14457 1-450); experiment: pull-down
# Sequence of GST-Beclin1 (Q14457 whole entry): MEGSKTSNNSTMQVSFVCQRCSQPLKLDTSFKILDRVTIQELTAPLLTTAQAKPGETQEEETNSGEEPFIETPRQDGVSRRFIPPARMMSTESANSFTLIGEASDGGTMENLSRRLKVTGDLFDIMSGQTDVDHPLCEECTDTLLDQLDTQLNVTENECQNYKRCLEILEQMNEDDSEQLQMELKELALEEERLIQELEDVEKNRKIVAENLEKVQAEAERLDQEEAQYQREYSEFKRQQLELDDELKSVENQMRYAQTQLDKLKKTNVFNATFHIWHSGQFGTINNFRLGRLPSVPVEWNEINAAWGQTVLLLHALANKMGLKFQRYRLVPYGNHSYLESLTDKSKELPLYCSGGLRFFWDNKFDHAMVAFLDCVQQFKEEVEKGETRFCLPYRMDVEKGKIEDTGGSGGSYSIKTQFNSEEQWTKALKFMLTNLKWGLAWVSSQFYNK
Binder,binding result [1],binding result (GST-Beclin1)
B1,binds,
B2,binds,
B3,,binds
